In US20240301052A1 (LANOVA MEDICINES DEVELOPMENT, published 2024):
Numbering of substitutions follows the chain as printed.

T1: human SLC34A2 (human, UniProt O95436 1-690)
T1 construct: whole, on cells; also called human solute carrier 34 A2; NaPi2b
T1 sequence (looked up): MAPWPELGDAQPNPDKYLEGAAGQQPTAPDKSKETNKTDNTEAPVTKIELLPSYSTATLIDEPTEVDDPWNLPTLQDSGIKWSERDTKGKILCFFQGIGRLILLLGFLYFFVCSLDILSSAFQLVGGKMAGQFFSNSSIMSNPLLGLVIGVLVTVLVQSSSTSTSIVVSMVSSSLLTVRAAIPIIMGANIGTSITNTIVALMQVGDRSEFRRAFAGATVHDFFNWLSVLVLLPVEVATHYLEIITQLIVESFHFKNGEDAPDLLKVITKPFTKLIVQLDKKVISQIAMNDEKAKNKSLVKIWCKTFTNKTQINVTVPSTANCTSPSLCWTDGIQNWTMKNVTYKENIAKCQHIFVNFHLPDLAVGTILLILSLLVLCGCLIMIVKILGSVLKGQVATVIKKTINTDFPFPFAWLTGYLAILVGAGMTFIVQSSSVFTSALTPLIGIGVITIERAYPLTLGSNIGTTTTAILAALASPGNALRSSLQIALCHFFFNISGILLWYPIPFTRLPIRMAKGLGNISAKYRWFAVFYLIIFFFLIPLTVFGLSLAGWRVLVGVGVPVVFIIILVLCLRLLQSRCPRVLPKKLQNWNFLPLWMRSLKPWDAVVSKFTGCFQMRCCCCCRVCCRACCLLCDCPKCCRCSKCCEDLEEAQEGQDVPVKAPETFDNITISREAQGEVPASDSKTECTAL

T2: rat SLC34A2 (rat, UniProt Q9JJ09 1-695)
T2 construct: whole, on cells
T2 sequence (looked up): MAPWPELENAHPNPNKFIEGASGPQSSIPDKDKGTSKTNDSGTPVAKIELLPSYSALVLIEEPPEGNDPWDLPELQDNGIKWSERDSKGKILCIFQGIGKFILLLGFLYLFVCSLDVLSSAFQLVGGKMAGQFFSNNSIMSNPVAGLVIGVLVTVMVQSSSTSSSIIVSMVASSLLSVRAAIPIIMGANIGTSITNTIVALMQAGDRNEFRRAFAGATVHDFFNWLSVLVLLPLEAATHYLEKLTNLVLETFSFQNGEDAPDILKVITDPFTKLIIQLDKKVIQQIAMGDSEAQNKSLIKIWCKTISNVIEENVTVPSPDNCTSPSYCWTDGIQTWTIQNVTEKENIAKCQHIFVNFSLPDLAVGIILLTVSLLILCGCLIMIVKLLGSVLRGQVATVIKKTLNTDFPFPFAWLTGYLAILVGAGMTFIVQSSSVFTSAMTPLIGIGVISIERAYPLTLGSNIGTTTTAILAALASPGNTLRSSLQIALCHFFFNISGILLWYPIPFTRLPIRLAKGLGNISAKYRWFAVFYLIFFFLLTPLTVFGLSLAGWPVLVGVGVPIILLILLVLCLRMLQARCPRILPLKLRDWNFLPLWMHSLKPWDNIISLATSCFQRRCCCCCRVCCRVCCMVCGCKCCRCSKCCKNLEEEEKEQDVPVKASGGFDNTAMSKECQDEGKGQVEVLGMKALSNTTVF

T3: Cynomolgus SLC34A2 (Cynomolgus, UniProt A0A2K5UHY1 1-690)
T3 construct: whole, on cells; also called Cyno SLC34A2
T3 sequence: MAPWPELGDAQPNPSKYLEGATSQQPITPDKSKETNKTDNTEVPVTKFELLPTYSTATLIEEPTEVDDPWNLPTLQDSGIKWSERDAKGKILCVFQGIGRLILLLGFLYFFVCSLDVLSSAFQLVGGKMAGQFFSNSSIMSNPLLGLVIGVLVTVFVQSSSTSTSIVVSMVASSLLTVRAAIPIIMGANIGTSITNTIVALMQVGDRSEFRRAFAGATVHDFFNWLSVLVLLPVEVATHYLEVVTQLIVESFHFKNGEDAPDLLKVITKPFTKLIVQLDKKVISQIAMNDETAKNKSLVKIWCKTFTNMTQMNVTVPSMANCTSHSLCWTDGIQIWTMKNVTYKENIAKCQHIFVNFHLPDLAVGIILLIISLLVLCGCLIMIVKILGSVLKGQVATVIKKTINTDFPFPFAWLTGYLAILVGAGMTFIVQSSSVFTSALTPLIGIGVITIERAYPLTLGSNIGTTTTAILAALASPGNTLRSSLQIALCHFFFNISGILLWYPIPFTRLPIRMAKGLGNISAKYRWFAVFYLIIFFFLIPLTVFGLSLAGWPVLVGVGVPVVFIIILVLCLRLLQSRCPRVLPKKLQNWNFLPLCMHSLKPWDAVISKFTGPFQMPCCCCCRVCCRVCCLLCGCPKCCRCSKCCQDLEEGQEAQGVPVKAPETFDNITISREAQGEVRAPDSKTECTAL

B1: xi91C9F1 hIgG1 (antibody, V domains shown)
VH: EVQLQQSGPELVKPGTSVKISCKTSGFFFTEYIIHWVKQSHGRSLEWIGGIIPNNGVTNYKQNFRGKAALTADKSSNTAYMELRSLTSEDSAVYYCARWRNGYYSAMDSWGQGTSVTVSS
VL: DIVVTQSHKFMSTSLGDRVSITCTASQDVGTAVAWYQQKPGHSPKLLIYWASTRHTGVPERFTGSGSGTDFTLTITNVQSEDLADYFCQQYRTSPLTFGVGTKLELK
notes: chimeric, hIgG1
B2: xi30H9B8F9 hIgG1 (antibody, V domains shown)
VH: QVQLQQPGAELVKPGASVKMSCKTSGYTFTTNNMHWVKQTPGQGLEWIGAIYPGNGATAYNQKFKGKATLTADKSSSTAYMQLSSLTSEASAVYYCARGMYGHGAMDYWGQGTSVIVSS
VL: DIVMTQSHKFMSRSVGDRVRITCKASQDVGTAVAWYQQKPGQSPKLLIYWATTRHSGVPDRFTGSGSGTDFIFTISNVQSEDLADYFCQQYSSNPLTFGAGTKLELK
notes: chimeric, hIgG1
B3: xi63A11D5B4 hIgG1 (antibody, V domains shown)
VH: QVQLQQPGAELVKPGASVKMSCRTSGYTFITYNMHWVKQTPGQGREWIGAIYPGNGDTSYNQKFKGKATLTADKSSSTAYMQLNSLTSEDSAVYYCSISTIITTGAVDYWGQGTSVTVAS
VL: DIVMTQSHKFMSTSVGDRVSITCKASQDVGTAVAWYQQKAGQSPKLLIYWTSTRHTGVPDRFTGSGSGTDFTLIIRSLQSEDLADYFCQQYSRIPLTFGSGTKLEIK
notes: chimeric, hIgG1
B4: xi62G10E4G8 hIgG1 (antibody, V domains shown)
VH: QVQLQQSGAEVVKPGASVKMSCKASGYTFPSYITHWVKQTPGQGLEWIGAIYPGNGDTSYIQKFKGKATLTADKSSSTAYMQLSSLTSEDSAVYYCARGTYGTSAWFTYWGQGTLVTVSA
VL: DIVLTQSPATLSVTPGDSVSLSCRARQNIGNNLYWYQQKSHESPRLLIKYASQSISGIPSRFSGSGSGTDFTLTINSVETEDFGVYFCQQSFSWPLTFGAGTKLELK
notes: chimeric, hIgG1
B5: XMT-1536 (antibody, INN chains, looked up, V domains shown)
VH: QVQLVQSGAEVVKPGASVKMSCKASGYTFTGYNIHWVKQAPGQGLEWIGAIYPGNGDTSYKQKFRGRATLTADTSTSTVYMELSSLRSEDSAVYYCARGETARATFAYWGQGTLVTVSS
VL: DIQMTQSPSSLSASVGDRVTITCSASQDIGNFLNWYQQKPGKTVKVLIYYTSSLYSGVPSRFSGSGSGTDYTLTISSLQPEDFATYYCQQYSKLPLTFGQGTKLELK
modifications: rilsodotin auristatin payload
B6: 63A11D5B4.p1.z9 hIgG1 (antibody, V domains shown)
VH: QVQLVQSGAEVVKPGASVKMSCKTSGYTFITYNMHWVRQAPGQGLEWIGAIYPGSGDTSYNQKFKGRVTLTADKSTSTAYMELSSLRSEDTAVYYCSISTIITTGAVDYWGQGTLVTVSS
VL: DIQMTQSPSSLSASVGDRVTITCKASQDVGTAVAWYQQKPGKVPKLLIYWTSTRHTGVPSRFSGSGSGTDFTLTISSLQPEDVATYYCQQYSRIPLTFGGGTKVEIK
notes: humanized hIgG1
B7: 91C9F1.p1.z7 hIgG1 (antibody, V domains shown)
VH: QVQLVQSGAEVKKPGSSVKVSCKTSGFFFTEYIIHWVRQAPGQGLEWIGGIIPNNDVTNYKQNFRGRVTLTADKSTSTAYMELSSLRSEDTAVYYCARWRNAYYSAMDSWGQGTTVTVSS
VL: DIQVTQSPSSLSTSVGDRVTITCTASQDVGTAVAWYQQKPGKSPKLLIYWASTRHTGVPERFTGSGSGTDFTLTISSVQPEDVATYFCQQYRTSPLTFGVGTKVEIK
notes: humanized hIgG1
B8: 62G10E4G8.p3.z15 hIgG1 (antibody, V domains shown)
VH: B4 VH with Q5V, T40A, G56A, K67R, S76T, Q82E, T87R, S91T, A120S
VL: EIVLTQSPATLSVSPGERATLSCRARQNIGNNLYWYQQKPGQSPRLLIKYASQSISGIPSRFSGSGSGTDFTLTISSLQSEDFAVYFCQQSFSWPLTFGQGTKLEIK
notes: humanized hIgG1
B9: 30H9B8F9.p1.z5 hIgG1 (antibody, V domains shown)
VH: QVQLVQSGAEVKKPGASVKVSCKTSGYTFTTNNMHWVRQAPGQGLEWIGAIYPGSGATAYNQKFKGRVTMTADTSTSTVYMELSSLRSEDTAVYYCARGMYGHGAMDYWGQGTLVTVSS
VL: DIQLTQSPSFLSASVGDRVTITCKASQDVGTAVAWYQQKPGKAPKLLIYWATTRHSGVPSRFSGSGSGTEFTLTISSLQPEDFATYYCQQYSSNPLTFGQGTKLEIK
notes: humanized hIgG1

Each binder was assayed against T1, human SLC34A2 (assay: FACS, OVCAR3 cells).
With B1 the EC50 was 1.6 nM and the “Top (MFI)” value was 63300 MFI.
B2 was tested, and the EC50 was 1.1 nM and the “Top (MFI)” value was 69100 MFI.
B3 was tested, and the EC50 was 9.2 nM and the “Top (MFI)” value was 78600 MFI.
For B4, the EC50 was 5.8 nM and the “Top (MFI)” value was 71100 MFI.

The binders below were run against T1, human SLC34A2 (assay: FACS, MDAH2774 cells).
Work on B5 yielded an EC50 of 7.09 nM.
For B6, the EC50 was 15.1 nM.
Work on B7 yielded an EC50 of 2.06 nM.
Binder B8 has an EC50 of 2.82 nM.
Work on B9 yielded an EC50 of 1.28 nM.

These binders were tested against T1, human SLC34A2 (assay: cell-based or functional assay).
For B1, the “ADCC reporter EC50” value was 2.8 nM and the “ADCC reporter Top (MFI)” value was 215000 MFI.
In the case of B2, the “ADCC reporter EC50” value is reported as 3.1 nM and the “ADCC reporter Top (MFI)” value is reported as 487000 MFI.
For B3, the “ADCC reporter EC50” value was 4.6 nM and the “ADCC reporter Top (MFI)” value was 216000 MFI.
For B4, the “ADCC reporter EC50” value was 4.8 nM and the “ADCC reporter Top (MFI)” value was 542000 MFI.

Biological target: T1, human SLC34A2
Test: cell-based or functional assay
Remark: another data set of the same source
For B6, the ADCC-HEK293 was 0.52 nM, the ADCC-OVCAR3 was 0.3 nM and the “Cytotoxic Effect - MDAH-2774” value was 1.5 nM. The “Cytotoxic Effect - OVCAR3” value was 0.06 nM.
With B7 the ADCC-HEK293 was 0.75 nM, the ADCC-OVCAR3 was 0.15 nM and the “Cytotoxic Effect - MDAH-2774” value was 0.39 nM. The “Cytotoxic Effect - OVCAR3” value was 0.014 nM.
B8 was tested, and the ADCC-HEK293 was 1.55 nM, the ADCC-OVCAR3 was 0.56 nM and the “Cytotoxic Effect - MDAH-2774” value was 0.24 nM. The “Cytotoxic Effect - OVCAR3” value was 0.025 nM.
For B9, the ADCC-HEK293 was 1.4 nM, the ADCC-OVCAR3 was 0.16 nM and the “Cytotoxic Effect - MDAH-2774” value was 0.21 nM. For the same binder, the “Cytotoxic Effect - OVCAR3” value was 0.02 nM.

These binders were tested against T2, rat SLC34A2 (assay: FACS, HEK293/Rat SLC34A2 cells).
Binder B6 has an EC50 of 3.04 nM.
For B7, the EC50 was 2.62 nM.
B8 was tested, and the EC50 was 4.04 nM.
Binder B9 has an EC50 of 1.81 nM.

The binders below were run against T1, human SLC34A2 (assay: FACS, HEK293/human SLC34A2 cells).
Method: The PTM-derisked VH chains were first tested for their impact on target binding. Cell based binding of PTM Abs on human SLC34A2 expressing cells were assessed using flow cytometry. Briefly, the HEK293/H_SLC34A2 cells were incubated with PTM Abs (from 200 nM, 4 folds dilution, 8 points). After incubation at 4° C. for 60 minutes, the cells were washed with FACS buffer twice, then stained with fluorescent conjugated secondary antibody at 4° C. for 30 minutes. After that the cells were washed twice and analyzed by flow cytometry.
For B1, the EC50 was 1.57 nM and the “Top (MFI)” value was 28600 MFI.
With B2 the EC50 was 1.14 nM and the “Top (MFI)” value was 32200 MFI.
In the case of B3, the EC50 is reported as 2.13 nM and the “Top (MFI)” value is reported as 30400 MFI.
B4 was tested, and the EC50 was 1.95 nM and the “Top (MFI)” value was 30300 MFI.

Biological target: T1, human SLC34A2
Test: FACS, HEK293/human SLC34A2 cells
Remark: another data set of the same source
B6 gave an EC50 of 5.87 nM.
B7 showed an EC50 of 2.72 nM.
Binder B8 has an EC50 of 2.86 nM.
B9 gave an EC50 of 2.4 nM.

What follows are binders tested against T3, Cynomolgus SLC34A2 (assay: FACS, cells expressing Cynomolgus SLC34A2).
With B1 the EC50 was 9.11 nM and the “Top (MFI)” value was 2430 MFI.
For B2, the EC50 was 1.08 nM and the “Top (MFI)” value was 4080 MFI.
With B3 the EC50 was 5.33 nM and the “Top (MFI)” value was 3510 MFI.
B4 was tested, and the EC50 was 3.33 nM and the “Top (MFI)” value was 4020 MFI.

Biological target: T3, Cynomolgus SLC34A2
Test: FACS, cells expressing Cynomolgus SLC34A2
Remark: another data set of the same source
B6 showed an EC50 of 4.45 nM.
B7 was tested, and the EC50 was 45.7 nM.
B8 gave an EC50 of 1.63 nM.
In the case of B9, the EC50 is reported as 0.97 nM.
